Data: publication PMC6879612 (2019)

Target: p53_(125–134)/HLA-A24 pMHC, soluble recombinant (human | , UniProt P61769 21-119; P04637 125-134, biotin where the biotinylated pMHC was used (site not stated))
Test: SPR

koff: 0.139 s⁻¹
B1: P1C1gl (germline sequence converted P1C1), human IgG1 (antibody, V domains shown)
VH: QVQLQESGPGLVKPSQTLSLTCTVSGGSISSGGYYWSWIRQHPGKGLEWIGYIYYSGSTYYNPSLKSRVTISVDTSKNQFSLKLSSVTAADTAVYYCARENFGAFDHWGQGTLVTVSS
VL: QSVLTQPPSVSGAPGQRVTISCTGSSSNIGADYETHWYQQLPGTAPKLLIYGNTNRPSGVPDRFSGSKSGTSASLAITGLQAEDEADYYCQSYDSNLSAWVFGGGTKLTIL
